The supplement of paper PMC9112550, “Optimization of the antimicrobial peptide Bac7 by deep mutational scanning” (BMC Biology, 2022)

Tested on: Escherichia coli TOP10
Assay: shrunken log2 fold change of peptide-encoding DNA abundance (4.5 h post-induction vs induction); higher = less antimicrobial activity (less host growth inhibition)
Conditions: time post-induction: 4.5 h; library: site-saturation at positions 5, 18, 19, 20
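Note: peptides expressed intracellularly from a pBAD plasmid library in pooled LB shake-flask culture, induced with 0.3% L-arabinose, DNA abundance read by NGS, three biological replicates, DESeq2 with apeglm shrinkage.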

| Sequence | shrunken log2 fold change |
| --- | --- |
| RRIRMRPPRLPRPRPRPSIGPRP | -0.00737 |
| RRIRMRPPRLPRPRPRPSIHPRP | -0.823 |
| RRIRMRPPRLPRPRPRPSLMPRP | 0.428 |
| RRIRMRPPRLPRPRPRPSLNPRP | -0.0544 |
| RRIRMRPPRLPRPRPRPSMFPRP | -0.368 |
| RRIRMRPPRLPRPRPRPSNFPRP | -0.192 |
| RRIRMRPPRLPRPRPRPSNHPRP | 0.00558 |
| RRIRMRPPRLPRPRPRPSNYPRP | -0.078 |
| RRIRMRPPRLPRPRPRPSQWPRP | 0.0206 |
| RRIRMRPPRLPRPRPRPSSGPRP | 0.0493 |
| RRIRMRPPRLPRPRPRPSSTPRP | 0.858 |
| RRIRMRPPRLPRPRPRPSTFPRP | 0.147 |
| RRIRMRPPRLPRPRPRPSTMPRP | -0.283 |
| RRIRMRPPRLPRPRPRPSVAPRP | 0.44 |
| RRIRMRPPRLPRPRPRPSVDPRP | 0.508 |
| RRIRMRPPRLPRPRPRPSVEPRP | 0.227 |
| RRIRMRPPRLPRPRPRPSVGPRP | 0.357 |
| RRIRMRPPRLPRPRPRPSVTPRP | 0.703 |
| RRIRMRPPRLPRPRPRPSWFPRP | 0.0112 |
| RRIRMRPPRLPRPRPRPSWGPRP | 0.155 |
| RRIRMRPPRLPRPRPRPSWHPRP | -0.103 |
| RRIRMRPPRLPRPRPRPSWTPRP | -0.0874 |
| RRIRMRPPRLPRPRPRPSYLPRP | -0.336 |
| RRIRMRPPRLPRPRPRPSYMPRP | -0.276 |
| RRIRMRPPRLPRPRPRPSYSPRP | -0.157 |

| Sequence | shrunken log2 fold change |
| --- | --- |
| RRIRMRPPRLPRPRPRPTARPRP | 1.22 |
| RRIRMRPPRLPRPRPRPTCDPRP | 0.79 |
| RRIRMRPPRLPRPRPRPTCHPRP | 0.317 |
| RRIRMRPPRLPRPRPRPTCTPRP | 0.963 |
| RRIRMRPPRLPRPRPRPTDIPRP | 0.501 |
| RRIRMRPPRLPRPRPRPTDKPRP | 0.851 |
| RRIRMRPPRLPRPRPRPTERPRP | 0.582 |
| RRIRMRPPRLPRPRPRPTFTPRP | 0.141 |
| RRIRMRPPRLPRPRPRPTGDPRP | 1.3 |
| RRIRMRPPRLPRPRPRPTGTPRP | 0.407 |
| RRIRMRPPRLPRPRPRPTHNPRP | 0.275 |
| RRIRMRPPRLPRPRPRPTHTPRP | 1.03 |
| RRIRMRPPRLPRPRPRPTIFPRP | -0.0388 |
| RRIRMRPPRLPRPRPRPTIRPRP | 0.0273 |
| RRIRMRPPRLPRPRPRPTKWPRP | 0.445 |
| RRIRMRPPRLPRPRPRPTLPPRP | 0.248 |
| RRIRMRPPRLPRPRPRPTMDPRP | 0.306 |
| RRIRMRPPRLPRPRPRPTMPPRP | 0.174 |
| RRIRMRPPRLPRPRPRPTNQPRP | 0.279 |
| RRIRMRPPRLPRPRPRPTPFPRP | 0.715 |
| RRIRMRPPRLPRPRPRPTQAPRP | 0.0839 |
| RRIRMRPPRLPRPRPRPTQWPRP | 0.479 |
| RRIRMRPPRLPRPRPRPTSYPRP | -0.0286 |
| RRIRMRPPRLPRPRPRPTTAPRP | 1.19 |
| RRIRMRPPRLPRPRPRPTTMPRP | 0.558 |

| Sequence | shrunken log2 fold change |
| --- | --- |
| RRIRMRPPRLPRPRPRPTWHPRP | 0.309 |
| RRIRMRPPRLPRPRPRPTWRPRP | 0.894 |
| RRIRMRPPRLPRPRPRPTYRPRP | 0.422 |
| RRIRMRPPRLPRPRPRPVAFPRP | 0.579 |
| RRIRMRPPRLPRPRPRPVCEPRP | 0.353 |
| RRIRMRPPRLPRPRPRPVFHPRP | -0.341 |
| RRIRMRPPRLPRPRPRPVFNPRP | -0.0958 |
| RRIRMRPPRLPRPRPRPVHCPRP | 0.517 |
| RRIRMRPPRLPRPRPRPVHYPRP | -0.0505 |
| RRIRMRPPRLPRPRPRPVIWPRP | 0.46 |
| RRIRMRPPRLPRPRPRPVKGPRP | 0.0743 |
| RRIRMRPPRLPRPRPRPVKIPRP | 0.514 |
| RRIRMRPPRLPRPRPRPVLYPRP | -0.0553 |
| RRIRMRPPRLPRPRPRPVMTPRP | 0.148 |
| RRIRMRPPRLPRPRPRPVPCPRP | 0.291 |
| RRIRMRPPRLPRPRPRPVPDPRP | 0.239 |
| RRIRMRPPRLPRPRPRPVPIPRP | 0.0109 |
| RRIRMRPPRLPRPRPRPVPMPRP | 0.44 |
| RRIRMRPPRLPRPRPRPVPWPRP | 0.581 |
| RRIRMRPPRLPRPRPRPVSTPRP | 1.96 |
| RRIRMRPPRLPRPRPRPVTPPRP | 0.614 |
| RRIRMRPPRLPRPRPRPVVEPRP | 0.719 |
| RRIRMRPPRLPRPRPRPVVGPRP | 0.448 |
| RRIRMRPPRLPRPRPRPVYFPRP | -0.0299 |
| RRIRMRPPRLPRPRPRPVYVPRP | -0.161 |

| Sequence | shrunken log2 fold change |
| --- | --- |
| RRIRMRPPRLPRPRPRPWANPRP | -0.0525 |
| RRIRMRPPRLPRPRPRPWCCPRP | 0.0172 |
| RRIRMRPPRLPRPRPRPWCDPRP | 0.274 |
| RRIRMRPPRLPRPRPRPWDHPRP | 0.0477 |
| RRIRMRPPRLPRPRPRPWEFPRP | 0.0443 |
| RRIRMRPPRLPRPRPRPWEKPRP | 0.217 |
| RRIRMRPPRLPRPRPRPWESPRP | 0.109 |
| RRIRMRPPRLPRPRPRPWFCPRP | -1.02 |
| RRIRMRPPRLPRPRPRPWHGPRP | -0.0653 |
| RRIRMRPPRLPRPRPRPWHWPRP | 0.0862 |
| RRIRMRPPRLPRPRPRPWKCPRP | -0.174 |
| RRIRMRPPRLPRPRPRPWKRPRP | -0.0605 |
| RRIRMRPPRLPRPRPRPWMPPRP | 0.0554 |
| RRIRMRPPRLPRPRPRPWNAPRP | -0.0284 |
| RRIRMRPPRLPRPRPRPWNPPRP | 0.12 |
| RRIRMRPPRLPRPRPRPWNSPRP | -0.00149 |
| RRIRMRPPRLPRPRPRPWPNPRP | 0.25 |
| RRIRMRPPRLPRPRPRPWQPPRP | -0.0454 |
| RRIRMRPPRLPRPRPRPWRRPRP | 0.22 |
| RRIRMRPPRLPRPRPRPWRVPRP | -0.158 |
| RRIRMRPPRLPRPRPRPWSHPRP | -0.0815 |
| RRIRMRPPRLPRPRPRPWSMPRP | -0.156 |
| RRIRMRPPRLPRPRPRPWSWPRP | -0.00716 |
| RRIRMRPPRLPRPRPRPWTGPRP | -0.217 |
| RRIRMRPPRLPRPRPRPWYDPRP | 0.0249 |

| Sequence | shrunken log2 fold change |
| --- | --- |
| RRIRMRPPRLPRPRPRPYAKPRP | 0.00938 |
| RRIRMRPPRLPRPRPRPYDIPRP | 0.0444 |
| RRIRMRPPRLPRPRPRPYEIPRP | 0.0237 |
| RRIRMRPPRLPRPRPRPYEYPRP | 0.0662 |
| RRIRMRPPRLPRPRPRPYFNPRP | -0.822 |
| RRIRMRPPRLPRPRPRPYGCPRP | -0.341 |
| RRIRMRPPRLPRPRPRPYGQPRP | 0.0303 |
| RRIRMRPPRLPRPRPRPYHCPRP | -0.72 |
| RRIRMRPPRLPRPRPRPYIMPRP | -0.12 |
| RRIRMRPPRLPRPRPRPYLGPRP | -0.331 |
| RRIRMRPPRLPRPRPRPYMNPRP | -0.737 |
| RRIRMRPPRLPRPRPRPYPGPRP | 0.0814 |
| RRIRMRPPRLPRPRPRPYPVPRP | -0.237 |
| RRIRMRPPRLPRPRPRPYSMPRP | -0.245 |
| RRIRMRPPRLPRPRPRPYTIPRP | 0.0978 |
| RRIRMRPPRLPRPRPRPYVGPRP | 0.0299 |
| RRIRMRPPRLPRPRPRPYWAPRP | -0.0573 |
| RRIRMRPPRLPRPRPRPYWRPRP | -0.159 |
| RRIRMRPPRLPRPRPRPYYGPRP | 0.0528 |
| RRIRMRPPRLPRPRPRPYYSPRP | -0.0674 |
| RRIRNRPPRLPRPRPRPAAMPRP | -0.223 |
| RRIRNRPPRLPRPRPRPACNPRP | -0.148 |
| RRIRNRPPRLPRPRPRPAGDPRP | 0.395 |
| RRIRNRPPRLPRPRPRPAGNPRP | 0.0404 |
| RRIRNRPPRLPRPRPRPAIMPRP | -0.0978 |

| Sequence | shrunken log2 fold change |
| --- | --- |
| RRIRNRPPRLPRPRPRPANDPRP | -0.392 |
| RRIRNRPPRLPRPRPRPANIPRP | -0.0793 |
| RRIRNRPPRLPRPRPRPAPVPRP | 0.406 |
| RRIRNRPPRLPRPRPRPAQDPRP | 0.288 |
| RRIRNRPPRLPRPRPRPAQQPRP | 0.017 |
| RRIRNRPPRLPRPRPRPAQYPRP | 0.103 |
| RRIRNRPPRLPRPRPRPARGPRP | 0.86 |
| RRIRNRPPRLPRPRPRPARIPRP | -0.0767 |
| RRIRNRPPRLPRPRPRPARTPRP | 0.139 |
| RRIRNRPPRLPRPRPRPARYPRP | 0.0763 |
| RRIRNRPPRLPRPRPRPATVPRP | -0.17 |
| RRIRNRPPRLPRPRPRPAVMPRP | -0.0474 |
| RRIRNRPPRLPRPRPRPAVNPRP | -0.169 |
| RRIRNRPPRLPRPRPRPAVSPRP | -0.203 |
| RRIRNRPPRLPRPRPRPAWEPRP | 0.247 |
| RRIRNRPPRLPRPRPRPCAEPRP | -0.169 |
| RRIRNRPPRLPRPRPRPCALPRP | -0.135 |
| RRIRNRPPRLPRPRPRPCCCPRP | -0.0783 |
| RRIRNRPPRLPRPRPRPCCWPRP | -0.0688 |
| RRIRNRPPRLPRPRPRPCDEPRP | -0.035 |
| RRIRNRPPRLPRPRPRPCDIPRP | -0.0262 |
| RRIRNRPPRLPRPRPRPCDTPRP | -0.0137 |
| RRIRNRPPRLPRPRPRPCFPPRP | -0.312 |
| RRIRNRPPRLPRPRPRPCFVPRP | -0.147 |
| RRIRNRPPRLPRPRPRPCGVPRP | -0.00664 |
